In experiment [1] the target is normal human wild-type TNF receptors on Kym1 cells. The experiment in a line: cell-based or functional assay.
Experiment [2] deals with TNFR1-Fas receptor chimera on mouse fibroblasts from TNFR1/TNFR2 double-knockout mice (MF TNFR1-Fas cells) (UniProt P19438). The experiment is described as follows: cell-based or functional assay.

We go through 1 substance from US8927205.

Sequence of TNFR1-Fas receptor chimera on mouse fibroblasts from TNFR1/TNFR2 double-knockout mice (MF TNFR1-Fas cells) (P19438 other isoform, or with tags, fused parts or gaps mutant limits assumed): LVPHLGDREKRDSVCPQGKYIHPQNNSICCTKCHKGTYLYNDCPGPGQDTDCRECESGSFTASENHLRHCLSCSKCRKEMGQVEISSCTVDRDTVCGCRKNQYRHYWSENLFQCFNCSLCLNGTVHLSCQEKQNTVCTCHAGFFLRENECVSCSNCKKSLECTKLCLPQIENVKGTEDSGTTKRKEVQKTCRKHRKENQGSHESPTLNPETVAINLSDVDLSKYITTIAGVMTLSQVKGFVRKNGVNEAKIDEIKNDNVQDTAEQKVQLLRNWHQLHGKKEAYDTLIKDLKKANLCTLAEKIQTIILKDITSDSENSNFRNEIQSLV

For “soluble human wild-type TNF (from UniProt P01375 57-233) (ligand)”, in experiment [1], the ED50, cytotoxicity on Kym1 cells, solutions stored 16 days at 37° C. (FIG. 8) came to 1.2 ng/mL; the ED50 after 8 days (FIG. 12), stored at 37° C. in 100% human serum, cytotoxicity on Kym1 cells is 0.4 ng/mL; the ED50 after 22 days (FIG. 9), cytotoxicity on Kym1 cells, samples stored at 37° C. was found to be 1.5 ng/mL; the ED50 freshly titrated (FIG. 7), cytotoxicity on Kym1 cells amounted to 0.1 ng/mL. The substance further yielded an ED50 freshly titrated (FIG. 11), diluted in 100% human serum, cytotoxicity on Kym1 cells in experiment [1] of 0.004 ng/mL. Also, in experiment [2], the ED50 (half-maximal effective concentration), cytotoxicity on MF TNFR1-Fas cells, freshly prepared dilutions is 0.2 ng/mL; the ED50, cytotoxicity on MF TNFR1-Fas cells, dilutions stored 8 days at 37° C. before the test turned out to be 2 ng/mL; the ED50, cytotoxicity on MF TNFR1-Fas cells, solutions stored 14 days at 37° C. before the test amounted to 2.8 ng/mL.
